Results: patent US20260049134A1 (UNIVERSITY OF FLORIDA RESEARCH FOUNDATION, published 2026)

T1: DCC
T1 construct: also called DCC-His (R&D Systems)
T1 chain: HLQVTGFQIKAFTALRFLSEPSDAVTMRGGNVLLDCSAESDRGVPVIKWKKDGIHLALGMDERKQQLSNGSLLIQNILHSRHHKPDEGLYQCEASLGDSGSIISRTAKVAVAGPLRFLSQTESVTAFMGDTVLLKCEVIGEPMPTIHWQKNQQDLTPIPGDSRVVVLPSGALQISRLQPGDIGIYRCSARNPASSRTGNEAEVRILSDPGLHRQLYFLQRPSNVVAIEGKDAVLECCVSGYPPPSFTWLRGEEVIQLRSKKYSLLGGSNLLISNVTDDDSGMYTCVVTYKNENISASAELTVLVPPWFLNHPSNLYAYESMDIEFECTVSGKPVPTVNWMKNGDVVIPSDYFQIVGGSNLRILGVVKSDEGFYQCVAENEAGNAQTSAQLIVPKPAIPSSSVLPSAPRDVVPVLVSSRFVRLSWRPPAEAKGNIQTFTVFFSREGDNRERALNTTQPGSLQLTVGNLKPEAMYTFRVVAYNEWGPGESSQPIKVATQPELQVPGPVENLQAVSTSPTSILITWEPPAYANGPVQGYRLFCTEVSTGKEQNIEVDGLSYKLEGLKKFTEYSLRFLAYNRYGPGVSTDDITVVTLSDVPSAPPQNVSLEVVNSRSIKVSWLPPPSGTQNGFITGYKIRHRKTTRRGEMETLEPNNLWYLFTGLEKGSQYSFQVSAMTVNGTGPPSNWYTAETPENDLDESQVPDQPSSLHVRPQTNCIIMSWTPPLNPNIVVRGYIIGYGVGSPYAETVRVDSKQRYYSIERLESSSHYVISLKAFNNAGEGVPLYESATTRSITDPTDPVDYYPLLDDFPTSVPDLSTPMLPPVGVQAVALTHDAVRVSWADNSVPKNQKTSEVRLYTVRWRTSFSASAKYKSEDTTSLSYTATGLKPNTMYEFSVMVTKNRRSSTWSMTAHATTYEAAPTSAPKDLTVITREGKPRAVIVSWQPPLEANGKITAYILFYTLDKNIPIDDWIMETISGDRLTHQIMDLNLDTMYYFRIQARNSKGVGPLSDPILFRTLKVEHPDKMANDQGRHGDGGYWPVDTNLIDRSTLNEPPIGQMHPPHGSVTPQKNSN

T2: IGSF11
T2 construct: also called IGSF11-Fc (R&D Systems)
T2 chain: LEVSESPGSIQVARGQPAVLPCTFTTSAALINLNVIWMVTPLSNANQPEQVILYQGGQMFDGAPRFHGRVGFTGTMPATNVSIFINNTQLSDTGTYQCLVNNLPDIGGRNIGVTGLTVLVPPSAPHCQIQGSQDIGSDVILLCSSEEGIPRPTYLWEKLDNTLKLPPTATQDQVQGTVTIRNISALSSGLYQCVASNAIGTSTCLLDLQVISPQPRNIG

T3: IL13RA1
T3 construct: also called IL13RA1-Fc-His (R&D Systems)
T3 chain: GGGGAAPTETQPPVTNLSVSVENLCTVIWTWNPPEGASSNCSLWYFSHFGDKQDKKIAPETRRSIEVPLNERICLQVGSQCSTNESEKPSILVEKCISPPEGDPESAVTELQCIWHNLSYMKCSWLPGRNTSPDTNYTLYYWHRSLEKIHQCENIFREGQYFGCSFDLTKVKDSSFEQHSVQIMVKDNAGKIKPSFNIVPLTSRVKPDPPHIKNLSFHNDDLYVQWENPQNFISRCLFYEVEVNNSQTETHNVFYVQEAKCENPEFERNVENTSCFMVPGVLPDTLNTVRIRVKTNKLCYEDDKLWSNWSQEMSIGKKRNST

T4: ANXA1
T4 construct: also called ANXA1-His (R&D Systems); not shown: His tag
T4 chain: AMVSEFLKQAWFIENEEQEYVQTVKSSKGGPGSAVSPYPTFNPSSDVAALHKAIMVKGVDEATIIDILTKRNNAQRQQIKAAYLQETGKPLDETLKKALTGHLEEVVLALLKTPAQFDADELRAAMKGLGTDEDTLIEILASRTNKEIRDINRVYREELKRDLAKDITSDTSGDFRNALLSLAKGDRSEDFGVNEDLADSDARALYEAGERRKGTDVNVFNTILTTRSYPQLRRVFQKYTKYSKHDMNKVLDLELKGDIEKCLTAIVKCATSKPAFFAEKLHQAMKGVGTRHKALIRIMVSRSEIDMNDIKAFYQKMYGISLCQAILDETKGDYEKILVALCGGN

T5: SLAMF7
T5 construct: also called SLAMF7-StrepTag; not shown: StrepTag and any linker
T5 chain: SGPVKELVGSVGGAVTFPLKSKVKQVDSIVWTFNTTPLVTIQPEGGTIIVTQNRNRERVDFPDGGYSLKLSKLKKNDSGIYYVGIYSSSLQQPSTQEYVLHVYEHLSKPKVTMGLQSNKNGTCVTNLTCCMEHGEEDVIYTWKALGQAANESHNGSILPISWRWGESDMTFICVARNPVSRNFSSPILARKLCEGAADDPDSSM


How the values were obtained:
Test in all cases: ELISA on coated protein
PTP4A3 = biological target: T6, PTP4A3
T6 construct: also called His-PTP4A3 (R&D Systems)
Procedure: (§1) Recombinant purified ECDs (50-150 ng) of each putative target protein were coated, incubated with 150 ng of the indicated primary antibody, and binding was detected using a peroxidase-conjugated anti-human Fab secondary antibody. Heatmap represents averages of technical triplicates. (8B) Target validation via siRNA knockdown. H929 cells were transfected with siRNA pools targeting the putative antibody targets ICAM1, CADM1, and PTPRG. Cells were then subjected to cognate IgG binding analysis via flow cytometry. (NT, non-targeting siRNA).
(§2) ELISA ELISA was conducted as described previously. Briefly, 50-150 ng of antigen was coated overnight in half-area 96-well plates at 4° C., blocked with 3% BSA at 37° C. for 1 h, and 150 ng of chimeric rabbit/human IgG1 was added, incubating for 2 h at 37° C. […] After incubating at 37° C. for 15 min-1 h (depending on intensity of controls), data were acquired using a SpectraMax M5 plate reader (Molecular Devices).

DCC = biological target: T1, DCC
Procedure: as §1, §2

IGSF11 = biological target: T2, IGSF11
Procedure: as §1, §2

IL13RA1 = biological target: T3, IL13RA1
Procedure: as §1, §2

ANXA1 = biological target: T4, ANXA1
Procedure: as §1, §2

SLAMF7 = biological target: T5, SLAMF7
Procedure: as §1, §2

T6 sequence (chain, as listed by the source limits assumed): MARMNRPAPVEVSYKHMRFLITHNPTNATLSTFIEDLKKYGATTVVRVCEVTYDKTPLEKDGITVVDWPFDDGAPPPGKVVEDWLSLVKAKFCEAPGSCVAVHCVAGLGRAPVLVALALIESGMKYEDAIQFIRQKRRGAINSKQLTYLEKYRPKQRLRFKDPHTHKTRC

| Binder | binding result (PTP4A3) | binding result (DCC) | binding result (IGSF11) | binding result (IL13RA1) | binding result (ANXA1) | binding result (SLAMF7) |
| --- | --- | --- | --- | --- | --- | --- |
| HW-42 chimeric rabbit-human IgG1 LA/LA/PG (antibody, V domains shown, Fc-silenced (L234A/L235A/P329G) IgG1, lambda; Alexa Fluor 647-labeled in single-step flow cytometry; Cluster C-1) VH: QSVKESEGGLFKPADTLTLTCTVSGFSLSSNEISWVRQAPGEGLEYIGIIDTGGRAYYAVWARSRSTITRNTNLNTVTLKMTSLTAADTATYFCARGGVDTEWYAFSSWGPGTLVTVPS VL: SFVLTQPASVQVNLGQTVSLTCTADTLSRRYASWYQQKPGQAPVLLIFRDTSRPSGVPDRFSGSSSGDTATLTISGAQAGDEADYYCATSDGSGSNYQYVFGGGTQLTVTG | no binding (tested: 150 ng IgG1 per well) | no binding (tested: 150 ng IgG1 per well) | no binding (tested: 150 ng IgG1 per well) | no binding (tested: 150 ng IgG1 per well) | no binding (tested: 150 ng IgG1 per well) | no binding (tested: 150 ng IgG1 per well) |
| HW-113 chimeric rabbit-human IgG1 LA/LA/PG (antibody, V domains shown, Fc-silenced (L234A/L235A/P329G) IgG1, lambda; Alexa Fluor 647-labeled in single-step flow cytometry) VH: QKQLVESGGGLVQPGGSLTLTCTVSGFSLNKYYMGWFRQAPGKGLEWIGVISRSGDTYYSSWAKGRFTISKASTTVDLRITSPTTEDTATYFCARDASSPGFHGDRLDLWGQGTLVTVSS VL: SFVLTQPASVQVNLGQTVSLTCTADTLSRSYASWYQQKPGQAPVLLIYRDTSRPSGVPDRFSGSSSGNTATLTISGAQAGDEADYYCATSDGIGSNYLWVFGGGTQLTVTG | no binding (tested: 150 ng IgG1 per well) | no binding (tested: 150 ng IgG1 per well) | no binding (tested: 150 ng IgG1 per well) | no binding (tested: 150 ng IgG1 per well) | no binding (tested: 150 ng IgG1 per well) | no binding (tested: 150 ng IgG1 per well) |
| HW-70 chimeric rabbit-human IgG1 LA/LA/PG (antibody, V domains shown, Fc-silenced (L234A/L235A/P329G) IgG1, lambda; Alexa Fluor 647-labeled in single-step flow cytometry; Cluster C-1) VH: QSLEESGGRLVTPGTPLTLTCTVSGFSLSSNAMSWVRQAPGKGLEWIGTIDGYGYTYYASWAKGRFTVSKTSTTVDLKITSPTTEDTATYFCAREIYLGSNFWGPGTLVTISS VL: SFVLTQPASVQVNLGQTVSLTCTADTLSRRYASWYQQKPGQAPVLLIYRDTSRPSGVPDRFSGSSSGNTATLTISGAQAGDEADYYCATADGSGSSYQFVFGGGTQLTVTG | no binding (tested: 150 ng IgG1 per well) | no binding (tested: 150 ng IgG1 per well) | no binding (tested: 150 ng IgG1 per well) | no binding (tested: 150 ng IgG1 per well) | no binding (tested: 150 ng IgG1 per well) | no binding (tested: 150 ng IgG1 per well) |
| HW-25 chimeric rabbit-human IgG1 LA/LA/PG (antibody, V domains shown, Fc-silenced (L234A/L235A/P329G) IgG1, lambda; Alexa Fluor 647-labeled in single-step flow cytometry; Cluster C-1) VH: QSLEESGGRLVTPGTPLTLTCTVSGFSLSSYAMGWVRQAPGKGLEWIGIIDSRGSTYYATWAKGRFTISKTSTTVDLKITSPTTEDTATYFCAREDSYYYDSFNLWGPGTLVTVSS VL: SFVLTQPASVQVNLGQTVSLTCTADTLSRRYASWYQQKPGQAPVLLIYRDTSRPSGVPDRFSGSSSGNTATLTISGAQAGDEADYYCATSDGSGSSYQCVFGGGTQLTVTG | no binding (tested: 150 ng IgG1 per well) | no binding (tested: 150 ng IgG1 per well) | no binding (tested: 150 ng IgG1 per well) | no binding (tested: 150 ng IgG1 per well) | no binding (tested: 150 ng IgG1 per well) | no binding (tested: 150 ng IgG1 per well) |
